This test concerns the target T1, CD36 (His-tagged recombinant human protein, Sino Biological, Life technologies, 70-80 kDa) (human, UniProt P16671 30-439).
T1 construct: CD36, class B scavenger receptor, human, recombinant; also called Human recombinant CD36
The test can be described thus: SPR; Biacore T100; CD36 immobilized by amine coupling on a C1 chip (1000 RU); S100A12 species as analyte 0.62-50.0 nM, single cycle kinetics, 30 µL/min, 25 °C; HBS-P+ with 350 µM CaCl2; two-state reaction model. Conditions: both partners purified.

Several values for one entry are separate records, joined by “and”; a condition that tells them apart may be missing. Identical values can stand only once.

T1 sequence (P16671 30-439): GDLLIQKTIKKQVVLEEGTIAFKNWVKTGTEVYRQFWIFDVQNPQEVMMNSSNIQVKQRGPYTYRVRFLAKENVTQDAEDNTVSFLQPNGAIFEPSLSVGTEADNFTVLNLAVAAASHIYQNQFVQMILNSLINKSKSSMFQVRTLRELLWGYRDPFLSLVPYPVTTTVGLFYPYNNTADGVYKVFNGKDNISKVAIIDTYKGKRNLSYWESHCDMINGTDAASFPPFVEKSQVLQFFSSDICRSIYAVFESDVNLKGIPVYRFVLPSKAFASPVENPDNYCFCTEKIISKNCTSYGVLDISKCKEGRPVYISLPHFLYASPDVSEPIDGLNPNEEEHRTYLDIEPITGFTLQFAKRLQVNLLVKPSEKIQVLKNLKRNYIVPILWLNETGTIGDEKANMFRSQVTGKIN

B1: commercially available native human S100A12 protein (nS100A12) (natural protein, UniProt P80511 1-92, looked up)
chain: MTKLEEHLEGIVNIFHQYSVRKGHFDTLSKGELKQLLTKELANTIKNIKDKAVIDEIFQGLDANQDEQVDFQEFISLVAIALKAAHYHTHKE
notes: S100A12, human, untagged; Called 'native' in the methods and 'untagged recombinant' in the results; also called human, untagged recombinant nS100A12
For orientation: Kd means the concentration at which binding is half-saturated. In the case of B1, the Kd is 1040 pM and 900 pM.

(Values after article PMC5241339, “Insights into binding of S100 proteins to scavenger receptors: class B scavenger receptor CD36 binds S100A12 with high affinity” (Amino Acids, 2016).)
